Like-named read-outs stand apart in the source and are kept apart here.
Columns and labels:
CobB = target: T1, CobB (Escherichia coli, UniProt P75960); conditions: 10 mM NAM, 37 °C, 2 h; result in words
T1 sequence (P75960 1-279): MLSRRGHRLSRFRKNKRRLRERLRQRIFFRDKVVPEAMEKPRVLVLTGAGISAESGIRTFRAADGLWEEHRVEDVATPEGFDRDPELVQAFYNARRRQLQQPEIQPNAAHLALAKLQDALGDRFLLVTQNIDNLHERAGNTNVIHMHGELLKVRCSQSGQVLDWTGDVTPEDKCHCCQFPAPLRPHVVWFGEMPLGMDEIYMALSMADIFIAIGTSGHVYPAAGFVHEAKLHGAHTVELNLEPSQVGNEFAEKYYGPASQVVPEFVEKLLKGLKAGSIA

YiaC [1] = experiment: ITC affinity of recombinant YiaC with acyl-CoA; assay type: binding, E. coli; conditions: for Kd: cell 50 μM YiaC titrated with 500 μM acyl-CoA, 37 °C (method), three biological repetitions; for binding (Bin): result in words
Procedure: (§1) This method was described previously. […] The volume of the first injection was 0.5 μl of 500 μM actyl-CoA (or actylated peptides), and the following 18 injections were 2.0 μl. The binding isotherm was fit with the Origin 8.0 software (OriginLab). Each group had three biological repetitions.

YiaC [2] = target: T2, YiaC (Escherichia coli, UniProt P37664); experiment: Isothermal titration calorimetry (MicroCal PEAQ-ITC) with acyl-CoA (750 uM in syringe) titrated into YiaC (75 uM in cell) at 25.1 °C according to the data sheet; the methods text gives 500 uM, 50 uM and 37 °C.; assay type: binding; conditions: n = 3
T2 construct: recombinant, pET28a vector, expressed in E. coli BL21 (λDE3), purified on HisPur Ni-NTA resin
Procedure: as §1

whole-cell lysates = experiment: Whole-cell lysate reaction, lactate to La-CoA; design: species or system E. coli MG1655; conditions: result in words
Procedure: This method was described previously. In detail, E. coli MG1655 was cultured in LB medium at 37 °C in shaken flasks overnight and harvested the cells by centrifugation, then added lysate buffer [[…], […] and 5 mM MgCl2, PH 7.0] and broke cells by ultrasound on ice, the supernatant was extracted by high-speed centrifugation as the whole protein lysate. Then measured protein concentration by BCA and adjusted the protein concentration to 2 mg/ml. […] Each reaction was performed three biological repetitions.
Samples dissolved in water were analyzed by an Orbitrap Exploris 480 (Thermo Scientific) mass spectrometer in positive ESI mode using the settings described previously[65],[66]. […] An Orbitrap Exploris 480 (Thermo Fisher Scientific) was employed for MS analysis. Spray voltage was set to 3.5 kV, funnel RF level at 40, and ion transfer tube temperature at 320 °C. Data were collected by Xcalibur (v.4.0.27.19). The orbitrap mass analyzer was used as the MS1 detector with 120,000 resolution. The normalized AGC target and maximum injection time were set at 70% /standard for MS1. The MS2 detector was used 15,000 resolution. Targeted mass setting is lactyl-CoA: 840.1436, acetyl-CoA: 810.1330 and propionate CoA: 824.1487. […] The relative intensity of acyl-CoA was analyzed by Xcalibur (v.4.0.27.19).

E. coli MG1655 = experiment: Growth curve; assay type: cell-based; conditions: 37 °C, result in words
Procedure: As previous described, the strains were cultured in LB medium overnight, then diluted 1:1000 in LB or M9 medium (with 1% glucose or 1% pyruvate) and incubated at 37 °C with 96-well plates, and each strain was added to three wells. The absorbance at 600 nm at initiation was set as a blank and measured every hour using a spectrophotometer. All the growth dynamic curves were drawn using Origin 8.0.

PykF [3] = conditions: in vitro; result in words
PykF [4] = conditions: for Relative activity of PykF: intracellular; for intracellular PykF activity: result in words
PncB = experiment: In vitro assay for PncB activity; assay type: biochemical, E. coli; conditions: for enzymatic activity vs wild type: in vitro, result in words
Procedure: The activity of purified PncB, PncB^K381Q, and PncB^K381R were measured as described. In detail, the purified proteins were added in the reaction buffer [50 mM Tris-HCl, 10 mM MgCl2, 2.5 mM dithiothreitol, 1 mM ATP, […] of bovine serum albumin, 1 mM nicotinic acid and 1 mM 5-phosphoribosyl-1-pyrophosphate (pH 7.5)] at 37 °C for 2 h. The reactions were measured by HPLC-MS/MS to detect the production of […]. Separation was performed on a Vanquish UHPLC system (Thermo Fisher Scientific) with an ACQUITY UPLC BEH C18 column (100 × 2.1 mm, 1.7 μm). Mobile phase A was 0.1% formic acid in water. Mobile phase B was 0.1% formic acid in methanol. […] Injection volume was 2 μl. Nicotinic acid detection was performed on an Orbitrap Exploris 480 spectrometer (Thermo Fisher Scientific, Bremen, Germany) operated with ESI probe. Data were acquired under the following parameters: sheath gas ((N2), 35 Arb; aux gas (N2), 10 Arb; spray voltage, 3500 V (positive mode); and in transfer tube temperature, 320 °C. An SIM was applied for data acquisition.

[5] = Fig. 6e, LB medium 37 °C, replicate 1
[6] = Fig. 6e, LB medium 37 °C, replicate 2
[7] = Fig. 6e, LB medium 37 °C, replicate 3
[8] = Fig. 6g, M9 with 1% glucose, replicate 2
[9] = Fig. 6g, M9 with 1% glucose, replicate 3
[10] = replicate 1, 37 °C, 2 h, HPLC-MS/MS

T2 sequence (P37664 whole entry): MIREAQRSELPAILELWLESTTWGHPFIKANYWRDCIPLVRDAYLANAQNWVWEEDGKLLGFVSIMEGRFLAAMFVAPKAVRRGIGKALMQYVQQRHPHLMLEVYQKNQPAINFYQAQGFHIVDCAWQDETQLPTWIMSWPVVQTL

NC(=O)c1cccnc1 [NAM, nicotinamide, reference compound]
inhibition of CobB delactylation (CobB): the delactylation reaction could be inhibited by nicotinamide (NAM)
inhibition, deacetylation compared with delactylation (CobB): more effective for deacetylation than delactylation

CC(=O)SCCNC(=O)CCNC(=O)[C@H](O)C(C)(C)COP(=O)(O)OP(=O)(O)OC[C@H]1O[C@@H](n2cnc3c(N)ncnc32)[C@H](O)[C@@H]1OP(=O)(O)O [acetyl-CoA, Acetyl coenzyme A, reference compound]
Kd (YiaC [1]): 5.57 µM
binding (Bin) (YiaC [1]): Binding

CC(=O)SCCNC(=O)CCNC(=O)[C@H](O)C(C)(C)COP(=O)(O)OP(=O)(O)OC[C@H]1O[C@@H](n2cnc3c(N)ncnc32)[C@H](O)[C@@H]1OP(=O)(O)O [acetyl-CoA, acetyl coenzyme A]
Kd (YiaC [2]): 5.57 µM

CC(O)C(=O)O (centres unmarked) [lactate, reference compound]
conversion to lactyl-CoA / lactyl-CoA level (whole-cell lysates): could be effectively converted to lactyl-CoA

CC(O)C(=O)SCCNC(=O)CCNC(=O)[C@H](O)C(C)(C)COP(=O)(O)OP(=O)(O)OC[C@H]1O[C@@H](n2cnc3c(N)ncnc32)[C@H](O)[C@@H]1OP(=O)(O)O (some centres unmarked) [lactyl-CoA, lactyl-coenzyme A]
Kd (YiaC [1]): 6.83 µM
binding (Bin) (YiaC [1]): strong binding
binding (Bin) (YiaC [1]; listed as laCoA): Binding
Kd (YiaC [2]): 6.83 µM
conversion to lactyl-CoA / lactyl-CoA level (whole-cell lysates): low level

PykF^K382Q
growth (E. coli MG1655; LB medium): grew the slowest
growth (E. coli MG1655; M9 with 1% glucose): grew slowest
enzymatic activity vs wild type (PykF [3]): significantly decreased
Relative activity of PykF (PykF [4]; [5]): 0.52
Relative activity of PykF (PykF [4]; [6]): 0.47
Relative activity of PykF (PykF [4]; [7]): 0.58
Relative activity of PykF (PykF [4]; [8]): 0.4941
Relative activity of PykF (PykF [4]; [9]): 0.4204
intracellular PykF activity (PykF [4]; LB medium): lowest activity
intracellular PykF activity (PykF [4]; M9 with 1% glucose): lowest PykF activity

PykF^K382R: PykF mutant, unmodified K mimic; pPykF^K382R = overexpressing strain
growth (E. coli MG1655; LB medium): fastest growth
growth (E. coli MG1655; M9 with 1% glucose): grew fastest
enzymatic activity vs wild type (PykF [3]): increased
Relative activity of PykF (PykF [4]; [5]): 1.38
Relative activity of PykF (PykF [4]; [6]): 1.06
Relative activity of PykF (PykF [4]; [7]): 1.54
Relative activity of PykF (PykF [4]; Fig. 6g, M9 with 1% glucose, replicate 1): 1.27
Relative activity of PykF (PykF [4]; [8]): 1.36
Relative activity of PykF (PykF [4]; [9]): 1.3593
intracellular PykF activity (PykF [4]; LB medium): highest activity
intracellular PykF activity (PykF [4]; M9 with 1% glucose): highest PykF activity

Succinyl coenzyme A [succinyl-CoA, reference compound]
binding (Bin) (YiaC [1]): no binding

B1: PncB^K381Q (protein, UniProt P18133 2-400, looked up, variant K381Q)
Nicotinate …: TQFASPVLHSLLDTDAYKLHMQQAVFHHYYDVHVAAEFRCRGDDLLGIYADAIREQVQAMQHLRLQDDEYQWLSALPFFKADYLNWLREFRFNPEQVTVSNDNGKLDIRLSGPWREVILWEVPLLAVISEMVHRYRSPQADVAQALDTLESKLVDFSALTAGLDMSRFHLMDFGTRRRFSREVQETIVKRLQQESWFVGTSNYDLARRLSLTPMGTQAHEWFQAHQQISPDLANSQRAALAAWLEEYPDQLGIALTDCITMDAFLRDFGVEFASRYQGLRHDSGDPVEWGEKAIAHYEKLGIDPQSKTLVFSDNLDLRKAVELYRHFSSRVQLSFGIGTRLTCDIPQVKPLNIVIKLVECNGKPVAKLSDSPGKTICHDQAFVRALRKAFDLPHIKKAS
enzymatic activity vs wild type (PncB): significantly decreased
Residual percentage of reaction (PncB; replicate 1, relative to C): 0.3998
Determination of nicotinic acid (PncB; [10]): 117663852
Determination of nicotinic acid (PncB; replicate 2): 149776081
Residual percentage of reaction (PncB; replicate 2, relative to C): 0.4956
Determination of nicotinic acid (PncB; replicate 3): 106239984
Residual percentage of reaction (PncB; replicate 3, relative to C): 0.3796

B2: PncB^K381R (protein, UniProt P18133 2-400, looked up, variant K381R)
Nicotinate …: TQFASPVLHSLLDTDAYKLHMQQAVFHHYYDVHVAAEFRCRGDDLLGIYADAIREQVQAMQHLRLQDDEYQWLSALPFFKADYLNWLREFRFNPEQVTVSNDNGKLDIRLSGPWREVILWEVPLLAVISEMVHRYRSPQADVAQALDTLESKLVDFSALTAGLDMSRFHLMDFGTRRRFSREVQETIVKRLQQESWFVGTSNYDLARRLSLTPMGTQAHEWFQAHQQISPDLANSQRAALAAWLEEYPDQLGIALTDCITMDAFLRDFGVEFASRYQGLRHDSGDPVEWGEKAIAHYEKLGIDPQSKTLVFSDNLDLRKAVELYRHFSSRVQLSFGIGTRLTCDIPQVKPLNIVIKLVECNGKPVAKLSDSPGKTICHDRAFVRALRKAFDLPHIKKAS
enzymatic activity vs wild type (PncB): increased
Residual percentage of reaction (PncB; replicate 1, relative to C): 0.01962
Determination of nicotinic acid (PncB; [10]): 5775041
Determination of nicotinic acid (PncB; replicate 2): 6028387
Residual percentage of reaction (PncB; replicate 2, relative to C): 0.01995
Determination of nicotinic acid (PncB; replicate 3): 5793798
Residual percentage of reaction (PncB; replicate 3, relative to C): 0.0207

B3: PncB: nicotinate phosphoribosyltransferase, wild type (protein, UniProt P18133 2-400, looked up)
Nicotinate …: TQFASPVLHSLLDTDAYKLHMQQAVFHHYYDVHVAAEFRCRGDDLLGIYADAIREQVQAMQHLRLQDDEYQWLSALPFFKADYLNWLREFRFNPEQVTVSNDNGKLDIRLSGPWREVILWEVPLLAVISEMVHRYRSPQADVAQALDTLESKLVDFSALTAGLDMSRFHLMDFGTRRRFSREVQETIVKRLQQESWFVGTSNYDLARRLSLTPMGTQAHEWFQAHQQISPDLANSQRAALAAWLEEYPDQLGIALTDCITMDAFLRDFGVEFASRYQGLRHDSGDPVEWGEKAIAHYEKLGIDPQSKTLVFSDNLDLRKAVELYRHFSSRVQLSFGIGTRLTCDIPQVKPLNIVIKLVECNGKPVAKLSDSPGKTICHDKAFVRALRKAFDLPHIKKAS
Residual percentage of reaction (PncB; replicate 1, relative to C): 0.08118
Determination of nicotinic acid (PncB; [10]): 23891965
Determination of nicotinic acid (PncB; replicate 2): 25485329
Residual percentage of reaction (PncB; replicate 2, relative to C): 0.08433
Determination of nicotinic acid (PncB; replicate 3): 18539215
Residual percentage of reaction (PncB; replicate 3, relative to C): 0.06624

Reference: publication PMC9636275 (Nature Communications, 2022)
